The text below walks through data of the supplement of paper PMC10567573.

± gives the standard deviation.

A short description of this data set: protein stability index of a GFP-peptide fusion (GPS, HEK-293T) (PSI 1-6); higher = more stable. Particulars: c terminus: a fixed tail appended.
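Note: 24-mer peptide tiles fused after GFP, lentivirally expressed, FACS-sorted into six equal bins by GFP/DsRed ratio, decoded by Illumina sequencing, PSI is the read-weighted mean bin number.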

YQETMVESTFMYLTLDLPTAPLYK [USP39]: the protein stability index runs as follows: (treatment: DMSO) 2.36 ± 0.52; (treatment: MLN4924 1 uM, 8 h) 2.28 ± 0.21.
Regarding YQLELQCCIDWTHVTDPLIGCKKP [SMG5], the protein stability index reads like this: (treatment: DMSO) 2.38 ± 0.45; (treatment: MLN4924 1 uM, 8 h) 2.1 ± 0.3.
Turning to YQRVLPLPIFTPAKMGATKEERED [TCAP], the protein stability index reads like this: (treatment: DMSO) 3.01 ± 0.69; (treatment: MLN4924 1 uM, 8 h) 3.62 ± 0.78.
The corresponding values for YRGAVYADNMEFEQCIKLWLHALH [FEM1B] are 2.19 ± 0.27 and 2.22 ± 0.48.
The matching figures for YSFISLFIYMVLSLFIALITGAYD [MCOLN1]: 3.14 ± 0.48 and 3.22 ± 0.45.
The corresponding values for YSSSRDGYGGSRDSYSSSRSDLYS [RBMX] are 3.51 ± 0.14 and 3.79 ± 0.21.
YTFVPWLLSFKRGSALEEKENKIL [TNFSF13B]: the protein stability index came out at 2.51 ± 0.59 (treatment: DMSO) and 2.22 ± 0.3 (treatment: MLN4924 1 uM, 8 h).
The matching figures for YTTEFHELEKIGSGEFGSVFKCVK [WEE1]: 2.49 ± 0.85 and 3 ± 0.47.
In the case of YYTTMQTLTKQDTMLKAMFSGRME [KCTD10], the protein stability index (treatment: DMSO) amounted to 2.4 ± 0.16 and the protein stability index (treatment: MLN4924 1 uM, 8 h) came out at 2.4 ± 0.36.
